B1: 1-27 (antibody, V domains shown)
VH: EVQLLESGGGLVQPGGSLRLSCAASGFTFSSYAMTWVRQAPGKGLEWVSAISGSGGGTYYADSVKGRFTISRDNSKNTLYLQMNSLRAEDTAVYYCASSSSWQFDYWGQGTLVTVSS
VL: QSALTQPASVSGSPGQSITISCTGTSSYVGHYNLVSWYQQHPGKAPKLMIYEGSRRPSGVSNRFSGSKSGNTASLTISGLQAEDEADYYCCSYAGSYTHYVFGGGTKLTVL
notes: also called variant 1-27
B2: 1-32 (antibody, V domains shown)
VH: EVQLLESGGGLVQPGGSLRLSCAASGFTFSSYAMYWVRQAPGKGLEWVSAISGSGGSTFYADSVKGRFTISRDNSKNTLYLQMNSLRAEDTAVYYCTRPPYGDYGDYWGQGTLVTVSS
VL: QSALTQPASVSGSPGQSITISCTGTSSDVGGYNLVSWYQQHPGKAPKLMIYEGNKRPSGVSNRFSGSKSGNTASLTISGLQAEDEADYYCCSYAGSSTFPVVFGGGTKLTVL
notes: also called variant 1-32
B3: 1-28 (antibody, V domains shown)
VH: B1 VH with A33G, T35S
VL: B1 VL with Y28G, H31S, R55Q, Y97S
notes: also called variant 1-28
B4: 1-21 (antibody, V domains shown)
VH: EVQLLESGGGLVQPGGSLRLSCAASGFTFSSYTMSWVRQAPGKGLEWVSIISGSGGSTYYADSVKGRFTISRDNSKNTLYLQMNSLRAEDTAVYYCAREGYRDYLWYFDLWGQGTLVTVSS
VL: QSALTQPASVSGSPGQSITISCTGTSSDVGSNNLVSWYQQHPGKAPKLMIYEGNKRPSGVSNRFSGSKSGNTASLTISGLQAEDEADYYCCSYAGSVVFGGGTKLTVL
B5: 1-24 (antibody, V domains shown)
VH: B4 VH with T33A, S35N
VL: QSALTQPASVSGSPGQSITISCTGTSSDVGYYNLVSWYQQHPGKAPKLMIYEGNKRPSGVSNRFSGSKSGNTASLTISGLQAEDEADYYCCSYAGGSVVFGGGTKLTVL
B6: 1-51 (antibody, V domains shown)
VH: B4 VH with T33A, I50V
VL: B5 VL with Y31S, N33D, G96S
B7: 1-22 (antibody, V domains shown)
VH: B4 VH with T33A, S35N
VL: B5 VL with S27T, Y31S, N54S, K55Q, G96S, V98T
B8: 1-52 (antibody, V domains shown)
VH: EVQLLESGGGLVQPGGSLRLSCAASGFTFSNYAMSWVRQAPGKGLEWVSAISGSAGSTYYADSVKGRFTISRDNSKNTLYLQMNSLRAEDTAVYYCARVRQGLRRTWYYFDYWGQGTLVTVSS
VL: B5 VL with Y31S, Y32S, N54S, G96S, S97L, V98Y
B9: 1-30 (antibody, V domains shown)
VH: B2 VH with Y35T
VL: B1 VL with S27R, Y28D, H31S, S54T, R55K, Y97R, H99P, Y100V
B10: 1-26 (antibody, V domains shown)
VH: EVQLLESGGGLVQPGGSLRLSCAASGFTFSSYAISWVRQAPGKGLEWVSAISGSGYSTYYADSVKGRFTISRDNSKNTLYLQMNSLRAEDTAVYYCARGAPDSSGYYFQGEVYFDYWGQGTLVTVSS
VL: B1 VL with Y28D, H31G, S54T, R55K, Y93F, A94V, G95R, Y97S, T98A, Y100V
B11: 1-10 (antibody, V domains shown)
VH: EVQLLESGGGLVQPGGSLRLSCAASGFTFSSYDMSWVRQAPGKGLEWVSVISGSGGSTYYADSVKGRFTISRDNSKNTLYLQMNSLRAEDTAVYYCAKGPLVGWYFDLWGQGTLVTVSS
VL: B1 VL with Y28N, H31S, S54T, R55K, Y97S, T98S, H99F, Y100V
B12: 1-9 (antibody, V domains shown)
VH: B11 VH
VL: B1 VL with Y28D, H31D, R55N, Y97S, T98S, H99F, Y100V
B13: 1-5 (antibody, V domains shown)
VH: EVQLLESGGGLVQPGGSLRLSCAASGFTFSSQAMSWVRQAPGKGLEWVSAISGSGGGTYYADSVKGRFTISRDNSKNTLYLQMNSLRAEDTAVYYCAKDRRFGEFDPWGQGTLVTVSS
VL: B1 VL with Y28G, H31S, G53A, R55K, H99F, Y100A
B14: 1-3 (antibody, V domains shown)
VH: B13 VH
VL: B1 VL with T25I, Y28D, H31S, S54T, R55K, Y97S, T98S, H99F, Y100V
B15: 1-7 (antibody, V domains shown)
VH: B11 VH
VL: B1 VL with Y28D, V29F, H31S, S54N, R55K, Y97S, H99F, Y100V
B16: 1-8 (antibody, V domains shown)
VH: B11 VH
VL: QSALTQPASVSGSPGQSITISCTGTSNDVGSYNLVSWYQQHPGKAPKLMIYEGSKRPSGVSNRFSGSKSGNTASLTISGLQAEDEADYYCCSYAGSRYVVFGGGTKLTVL

Residue numbers refer to the chain shown, from its start.

The target in the first test is T1, COVID S1 RBM Fc fusion (Antigen 2) (SARS-CoV-2, UniProt P0DTC2 437-508).
T1 construct: domain: RBM
As to the kind of experiment: phage ELISA.
For B1, the “ELISA fold over background” value was found to be 1.6 fold over background.
Still for that read-out and setting: under B2 stands 1.1 fold over background; under B3, 1.2 fold over background.

The target of a further test is T2, S1-Fc (SARS-CoV-2, UniProt P0DTC2 16-685). As to the kind of experiment: phage ELISA. Background: An ELISA detects its analyte on a solid surface through an enzyme-linked reagent.
B1: the “ELISA fold over background” value stood at 1.3 fold over background.
Same read-out and setting: under B2 stands 4 fold over background.
Same read-out and setting: under B3 stands 1.1 fold over background.

In the next test the target is T3, SARS-CoV-2 Spike Glycoprotein S1 (subunit 1) (SARS-CoV-2, UniProt P0DTC2 16-685).
T3 construct: also called S1 Monomer; SARS-CoV-2 S1
As to the kind of experiment: screening phage ELISA, mean.
Consider B4, for which the “ELISA (Avg)” value was found to be 47.6.
Same read-out and setting: under B5 stands 32.9.
On the same count and under the same terms, under B6 stands 7.1; under B7, 40.6; under B8, 3.5.
Same read-out and setting: under B9 stands 29.5; under B10, 19.5.
Regarding B11, the “ELISA (Avg)” value was 16.9.
Regarding B12, the “ELISA (Avg)” value worked out at 18.5.
On the same count and under the same terms, for B13 the value was 20.6; for B14, 23.9.
B15: the “ELISA (Avg)” value is 22.5.
Take B16: the “ELISA (Avg)” value was determined as 19.3.

A further test concerns the target T4, SARS-CoV-2 S1 (antigen of the Carterra SPR kinetics) (SARS-CoV-2, UniProt P0DTC2 16-685). As to the kind of experiment: Carterra SPR.
For B1, binding was characterised by a dissociation constant (Kd) of 12.5 nM; the off-rate constant (koff) (usually a measure of how fast the partners let go of each other) stood at 0.00285 s⁻¹; the on-rate constant (kon) – broadly, the rate constant with which the complex forms – was found to be 227000 M⁻¹ s⁻¹.
For B2, binding was characterised by a dissociation constant (Kd) of 57.8 nM, the koff is 0.317 s⁻¹ and the on-rate constant (kon) amounted to 5.49e+06 M⁻¹ s⁻¹.
In the case of B3, the dissociation constant (Kd) – broadly, the free concentration of one partner at which half of the binding sites on the other are occupied at equilibrium, for simple one-to-one binding – was 73.5 nM; the koff is 9.05 s⁻¹; the kon is 1.23e+08 M⁻¹ s⁻¹.

A further test deals with T1, COVID S1 RBM Fc fusion (Antigen 2). Put plainly: phage ELISA. This is another data set of the same source.
For the molecule B1, the “ELISA fold over background” value is 1.6 fold over background.
The same measure, in the same setting: for B2 the value was 1.1 fold over background; for B3, 1.2 fold over background.

For another test, the target named is T2, S1-Fc. Put plainly: phage ELISA. The source holds these as a separate data set.
For B1, the “ELISA fold over background” value amounted to 1.3 fold over background.
Same read-out and setting: under B2 stands 4 fold over background; under B3, 1.1 fold over background.

Another test deals with T3, SARS-CoV-2 Spike Glycoprotein S1 …. As to the kind of experiment: screening phage ELISA, mean. This is another data set of the same source.
For B4, the “ELISA (Avg)” value stood at 47.6.
The same measure, in the same setting: for B5 the value was 32.9; for B6, 7.1.
On the same count and under the same terms, under B7 stands 40.6.
On the same count and under the same terms, under B8 stands 3.5; under B9, 29.5; under B10, 19.5.
For B11, the “ELISA (Avg)” value is 16.9.
On the same count and under the same terms, under B12 stands 18.5; under B13, 20.6.
The same measure, in the same setting: under B14 stands 23.9; under B15, 22.5.
Still for that read-out and setting: under B16 stands 19.3.

The target is the same in a further test. As to the kind of experiment: column DC/S1 (format not explained).
In turn, B5 yielded a Kd of 2040 nM.
The same measure, in the same setting: for B9 the value was 4.7 nM; for B14, 253 nM.

The target in the next test is T4, SARS-CoV-2 S1 (antigen of the Carterra …). Put plainly: Carterra SPR. The source holds these as a separate data set.
In the case of B1, the koff was 0.00285 s⁻¹ and the kon amounted to 227000 M⁻¹ s⁻¹.
For B2, in that order: 0.317 s⁻¹ and 5.49e+06 M⁻¹ s⁻¹.
For B3, in that order: 9.05 s⁻¹ and 1.23e+08 M⁻¹ s⁻¹.

For the next test, the target named is T3, SARS-CoV-2 Spike Glycoprotein S1 …. As to the kind of experiment: ELISA binding titration.
With B6, a half-maximal effect (EC50) was put at 98.2 nM.
For the molecule B7, the EC50 (in general, the midpoint of the concentration-response curve) turned out to be 6.55 nM.
On the same count and under the same terms, under B10 stands 48.5 nM; under B13, 7.83 nM.
The same measure, in the same setting: under B14 stands 0.133 nM.
On the same count and under the same terms, under B15 stands 95.7 nM.

For a further test the target is unchanged. As to the kind of experiment: column Inhibitor IC50 (assay not explained).
On to B4, for which the 50% inhibitory concentration (IC50) (commonly the concentration that inhibits the measured activity by half) came out at 6.7 nM.
The same measure, in the same setting: for B7 the value was 73.2 nM; for B8, 740 nM; for B9, 25.3 nM.
Still for that read-out and setting: under B10 stands 8 nM; under B11, 17.7 nM.
The molecule B12 showed an IC50 of 282 nM.
The same measure, in the same setting: under B14 stands 15.7 nM; under B16, 97.3 nM.
